Measurements: article PMC11729338, “Molecular Characterization and Interaction between Human VEGF-D and VEGFR-3” (Journal of Microbiology and Biotechnology, 2024)
Positions count from the first letter of the chain named. Names may count otherwise.

B1: His-tagged wild-type human VEGF-D (residues 89-205) (ligand, UniProt O43915 89-205, looked up)
chain: FAATFYDIETLKVIDEEWQRTQCSPRETCVEVASELGKSTNTFFKPPCVNVFRCGGCCNEESLICMNTSTSYISKQLFEISVPLTSVPELVPVKVANHTGCKCLPTAPRHPYSIIRR
notes: Vascular endothelial growth factor D (VEGF-D), human, residues 89-205 (major mature form); Cloned in pET-28a; also called Wild-type VEGF-D; major form
B2: His-tagged VEGF-D (residues 89-205), wild type (ligand, human, UniProt O43915 89-205, looked up)
chain: B1 chain
notes: human VEGF-D, residues 89-205 (major mature form); Cloned in pET-28a; also called wild-type VEGF-D; mature VEGF-D; source: for SEC co-lysed with His-tagged VEGFR-3 cells and purified together on Ni-NTA
B3: GST-tagged VEGF-D (residues 89-205) E105A (ligand, human, UniProt O43915 89-205, looked up)
chain: B1 chain with E17A
notes: human VEGF-D, residues 89-205, E105A; Cloned in pGEX-4T-1
B4: GST-tagged VEGF-D (residues 89-205) I102A (ligand, human, UniProt O43915 89-205, looked up)
chain: B1 chain with I14A
notes: human VEGF-D, residues 89-205, I102A; Cloned in pGEX-4T-1
B5: His-tagged VEGF-D (residues 89-205) I102A/E105A (ligand, human, UniProt O43915 89-205, looked up)
chain: B1 chain with I14A, E17A
notes: Vascular endothelial growth factor D (VEGF-D), human, residues 89-205, double mutant I102A/E105A; same limits as Dm1 (see its note on the primers); source: E. coli BL21 (DE3), purified
B6: His-tagged VEGF-D (residues 89-205) D103A/Q110A (ligand, human, UniProt O43915 89-205, looked up)
chain: B1 chain with D15A, Q22A
notes: Vascular endothelial growth factor D (VEGF-D), human, residues 89-205, double mutant D103A/Q110A; same limits as Dm1 (see its note on the primers); source: E. coli BL21 (DE3), purified
B7: His-tagged VEGF-D (residues 89-205) D103A/Q110A (ligand, human, UniProt O43915 89-205, looked up)
chain: B1 chain with D15A, Q22A
notes: human VEGF-D, residues 89-205, D103A and Q110A; also called D103A/Q110A mutant; double mutated form of VEGF-D; source: E. coli BL21 (DE3), purified
B8: His-tagged VEGF-D (residues 89-205) I102A/E105A (ligand, human, UniProt O43915 89-205, looked up)
chain: B1 chain with I14A, E17A
notes: human VEGF-D, residues 89-205, I102A and E105A; also called double mutated form of VEGF-D; source: E. coli BL21 (DE3), purified

Columns and labels:
[1] = biological target: T1, His-tagged human VEGFR-3 (residues 30-326) (human, UniProt P35916 30-326); assay: SPR; VEGFR-3 immobilised on a CM5 chip by amine coupling (2,300 response units); Biacore T100, 25°C; running buffer 50 mM HEPES (pH 7.7), 50 mM NaCl or 50 mM Tris-HCl (7.82), 50 mM NaCl; VEGF-D or mutant injected at 0.125, 0.25, 0.5, 1 uM, 10 ul/min; details: both partners purified
T1 construct: Vascular endothelial growth factor receptor 3 (VEGFR-3), human, residues 30-326 (extracellular Ig domains 1-3); The primers fit P30 to I326; the reverse primer has no stop codon, so vector residues and a second His tag may follow at the C-terminus (my surmise); also called Wild-type VEGFR-3; extracellular domains 1, 2 and 3
T1 sequence (looked up): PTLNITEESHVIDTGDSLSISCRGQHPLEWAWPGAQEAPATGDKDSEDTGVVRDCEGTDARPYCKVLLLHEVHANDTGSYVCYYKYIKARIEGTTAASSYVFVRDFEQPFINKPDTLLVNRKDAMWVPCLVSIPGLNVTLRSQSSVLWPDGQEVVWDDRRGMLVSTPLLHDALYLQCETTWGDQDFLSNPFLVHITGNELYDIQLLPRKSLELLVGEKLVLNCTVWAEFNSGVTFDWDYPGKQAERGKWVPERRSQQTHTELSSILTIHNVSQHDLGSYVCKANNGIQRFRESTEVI

[2] = biological target: T2, His-tagged VEGFR-3 (residues 30-326) (human, UniProt P35916 30-326); assay: cell-based or functional assay
T2 sequence (looked up): T1 sequence (looked up)

[3] = biological target: T2, His-tagged VEGFR-3 (residues 30-326); assay: SPR; VEGFR-3 immobilised on a CM5 chip by amine coupling (2,300 response units); VEGF-D or mutant injected at 0.125, 0.25, 0.5 and 1 uM, 10 ul/min; Biacore T100, 25 °C; 50 mM HEPES (pH 7.7), 50 mM NaCl or 50 mM Tris-HCl (7.82), 50 mM NaCl; details: both partners purified
[4] = biological target: T2, His-tagged VEGFR-3 (residues 30-326); assay: SEC; His-tagged VEGF-D and His-tagged VEGFR-3 cells co-lysed, purified together on Ni-NTA, incubated 24 h at 4 °C; Superdex 200 10/300 GL, 50 mM Tris-HCl (pH 7.82), 200 mM NaCl, 0.1% glycerol, sample 17 mg/ml, 0.4 ml/min; fractions by SDS-PAGE; details: partners not purified
[5] = biological target: T2, His-tagged VEGFR-3 (residues 30-326); assay: pull-down; 50 ug GST-tagged VEGF-D or mutant on Glutathione Sepharose 4 Fast Flow beads, 50 ug His-VEGFR-3 in 1X PBS, on ice overnight; eluted with 30 mM glutathione; Western blot with anti-His and anti-GST; details: both partners purified

Binder	Kd [1]	koff [1]	kon [1]	Kd [3]	further results
B1	268 nM	0.00115 s⁻¹	4310 M⁻¹ s⁻¹		
B2				270 nM	MTT cell viability of MDA-MB-231 cells, 0-600 ng VEGF-D, 24 h; EC50 [2]: 238 ng; stoichiometry N [4]: 1
B3					binding result [5]: binds
B4					binding result [5]: binds
B5	956 nM	0.0015 s⁻¹	1570 M⁻¹ s⁻¹		
B6	533 nM	0.00103 s⁻¹	1940 M⁻¹ s⁻¹		
B7				530 nM	
B8				960 nM	
